Reference: article PMC11272584 (Nature Metabolism, 2024)
Substitutions are numbered along the chain they refer to.

Experiments:
GIPR A207V (human) = target: T1, GIPR A207V (human) (UniProt P48546)
T1 sequence: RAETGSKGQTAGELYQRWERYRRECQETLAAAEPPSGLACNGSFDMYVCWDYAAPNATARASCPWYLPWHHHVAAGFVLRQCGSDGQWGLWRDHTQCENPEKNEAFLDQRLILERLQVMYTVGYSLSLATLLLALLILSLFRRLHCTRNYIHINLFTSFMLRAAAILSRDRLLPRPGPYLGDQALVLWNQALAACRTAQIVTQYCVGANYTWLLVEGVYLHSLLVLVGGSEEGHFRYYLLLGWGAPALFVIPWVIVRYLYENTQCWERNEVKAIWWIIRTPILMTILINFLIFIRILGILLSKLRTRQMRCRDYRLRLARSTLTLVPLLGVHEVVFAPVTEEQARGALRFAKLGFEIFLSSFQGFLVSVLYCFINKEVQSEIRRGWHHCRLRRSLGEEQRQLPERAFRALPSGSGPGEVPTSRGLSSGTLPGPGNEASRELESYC

GIPR E288G (human) = target: T2, GIPR E288G (human) (UniProt P48546)
T2 sequence: T1 sequence with V186A, E267G

GIPR R190Q (human) = target: T3, GIPR R190Q (human) (UniProt P48546)
T3 sequence: T1 sequence with R169Q, V186A

GIPR R336P (human) = target: T4, GIPR R336P (human) (UniProt P48546)
T4 sequence: T1 sequence with V186A, R315P

GIPR T168A (human) = target: T5, GIPR T168A (human) (UniProt P48546)
T5 sequence: T1 sequence with T147A, V186A

GIPR V99I (human) = target: T6, GIPR V99I (human) (UniProt P48546)
T6 sequence: T1 sequence with V78I, V186A

“β-arrestin 2 (Rluc8-Arrestin-3-Sp1) (from UniProt P32121 1-409) (natural protein)” was tested, and the β-arrestin 2 recruitment (BRET) on stimulation with GIP(1-42): logEC50 (Arrestin) (log M (inferred)) (GIPR A207V (human)) was -9.42, the β-arrestin 2 recruitment (BRET) on stimulation with GIP(1-42): logEC50 (Arrestin) (log M (inferred)) (GIPR E288G (human)) was -9.15 and the β-arrestin 2 recruitment (BRET) on stimulation with GIP(1-42): logEC50 (Arrestin) (log M (inferred)) (GIPR R190Q (human)) was -8.86. For the same substance, the β-arrestin 2 recruitment (BRET) on stimulation with GIP(1-42): logEC50 (Arrestin) (log M (inferred)) (GIPR R336P (human)) was -8.82, the β-arrestin 2 recruitment (BRET) on stimulation with GIP(1-42): logEC50 (Arrestin) (log M (inferred)) (GIPR T168A (human)) was -9.27 and the β-arrestin 2 recruitment (BRET) on stimulation with GIP(1-42): logEC50 (Arrestin) (log M (inferred)) (GIPR V99I (human)) was -8.93.
